US6965850B2, “Methods for modulating nuclear receptor coactivator binding” (The Regents of the University of California, priority 1998, dated 2005)
Ends that are not written are not given here.

Key:
hTRβ LBD [1] = molecular target: T1, hTRβ LBD (Homo sapiens, UniProt P10828); assay: Peptide competition of GRIP1 (563-767) interaction with hTRβ LBD; format: binding; parameters: made in house; host or cells: TR LBD: in vitro translation (reticulocyte lysate); GST-GRIP1 fragment: E. coli HB101
T1 sequence (P10828 202-461): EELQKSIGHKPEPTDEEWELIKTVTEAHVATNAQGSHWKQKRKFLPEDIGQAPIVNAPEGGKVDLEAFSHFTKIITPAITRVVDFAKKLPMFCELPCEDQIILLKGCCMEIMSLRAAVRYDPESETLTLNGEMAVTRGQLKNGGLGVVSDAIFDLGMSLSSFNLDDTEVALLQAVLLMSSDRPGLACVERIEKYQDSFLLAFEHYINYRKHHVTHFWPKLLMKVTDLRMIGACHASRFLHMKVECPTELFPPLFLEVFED
Experimental: (§1) For in vitro binding studies GR, TR and their derivatives were translated in the presence of [^35S]methionine using the TNT Coupled Reticulocyte System (Promega). Separate translations were performed in the presence and absence of 10 μM dexamethasone or 1 μM RU486 for GR and 10 μM triiodothyronine for TR. Expression was quantified by phosphoimager analysis (BAS2000, Fuji). For all binding assays 50 μl of a 20% bead suspension containing either 1.6 or 4.0 μM bound purified GST GRIP1 fragment (either 568-767 or 563-1121) was incubated with 0.2 μl or 1.4 μl in vitro transcribed and translated TR or GR, respectively. Binding was performed in the binding buffer described above supplemented with 20 μg/ml BSA and appropriate hormone. The chosen GST GRIP1 fragment concentrations were sufficient to bind either 70 or 100% of the TR derivatives. The reaction was incubated at 4° C. under rotation for 2 hours. In case of competition experiments, the appropriate concentration of peptides were added to the reaction before addition of receptors. However, no differences in the results were noted by adding the peptides after half of the incubation of the GST GRIP1 fragment with nuclear receptors. […] Beads were washed five times with 200 μl binding buffer+BSA at 4° C. before elution of the bound proteins in 20 μl SDS loading buffer. Eluted beads and input labeled protein were subjected to SDS-PAGE. The fraction of bound nuclear receptors was determined by phosphoimager analysis.

GR = assay: GST-GRIP1 fragment pull-down of GR; format: binding
Experimental: as §1

hTRβ LBD [2] = molecular target: T1, hTRβ LBD; assay: GST-GRIP1 fragment pull-down of TR; format: binding; parameters: made in house; host or cells: in vitro translation (TNT Coupled Reticulocyte System, Promega)
Experimental: For in vitro binding studies GR, TR and their derivatives were translated in the presence of [^35S]methionine using the TNT Coupled Reticulocyte System (Promega). Separate translations were performed in the presence and absence of 10 μM dexamethasone or 1 μM RU486 for GR and 10 μM triiodothyronine for TR. Expression was quantified by phosphoimager analysis (BAS2000, Fuji). For all binding assays 50 μl of a 20% bead suspension containing either 1.6 or 4.0 μM bound purified GST GRIP1 fragment (either 568-767 or 563-1121) was incubated with 0.2 μl or 1.4 μl in vitro transcribed and translated TR or GR, respectively. Binding was performed in the binding buffer described above supplemented with 20 μg/ml BSA and appropriate hormone. The chosen GST GRIP1 fragment concentrations were sufficient to bind either 70 or 100% of the TR derivatives. The reaction was incubated at 4° C. under rotation for 2 hours. In case of competition experiments, the appropriate concentration of peptides were added to the reaction before addition of receptors. However, no differences in the results were noted by adding the peptides after half of the incubation of the GST GRIP1 fragment with nuclear receptors. […] The fraction of bound nuclear receptors was determined by phosphoimager analysis.

hERα-LBD = molecular target: T2, hERα-LBD (Homo sapiens, UniProt P03372); assay: Electrophoretic mobility shift assay with purified hERα-LBD; format: binding; conditions: 2-fold or 10-fold molar excess of peptide, 6% native PAGE
T2 construct: made in house; host or cells: E. coli BL21(DE3)pLysS
T2 sequence (P03372 297-554): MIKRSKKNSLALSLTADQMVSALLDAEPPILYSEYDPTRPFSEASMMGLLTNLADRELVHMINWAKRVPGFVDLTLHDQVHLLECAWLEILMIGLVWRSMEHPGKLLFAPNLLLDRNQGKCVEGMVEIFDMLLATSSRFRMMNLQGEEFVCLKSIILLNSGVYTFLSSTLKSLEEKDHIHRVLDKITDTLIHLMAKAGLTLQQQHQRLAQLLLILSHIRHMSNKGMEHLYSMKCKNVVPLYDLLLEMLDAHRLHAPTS
Experimental: An electrophoretic mobility shift assay was used to directly assess the ability of the NR-box 2 peptide to bind the purified ERα LBD in the presence of either DES or OHT. Eight microgram samples of purified hERα-LBD bound to either DES or OHT were incubated in the absence of the peptide, i.e., buffer alone, or in the presence of either a 2-fold or 10-fold molar excess of the GRIP1 NR-box 2 peptide. The binding reactions were performed on ice for 45 minutes in 10 μl of buffer containing 20 mM Tris, pH 8.1, 1 mM DTT, and 200 mM NaCl and then subjected to 6% native PAGE. Gels were stained with GELCODE Blue Stain reagent (Pierce).

hERα V376R mutant = molecular target: T3, hERα V376R mutant (Homo sapiens, UniProt P03372, V376R); assay: In vitro binding of [35S]-labeled hERα mutant to GST-GRIP1; conditions: percentage of WT hERα
T3 construct: expression vector encoding full-length hERα, pSG5-er HEGO (WT or mutants); made in house; host or cells: hERα: in vitro translation implied by the [35S] label; GST-GRIP1: E. coli HB101
T3 sequence (P03372 1-595 V376R): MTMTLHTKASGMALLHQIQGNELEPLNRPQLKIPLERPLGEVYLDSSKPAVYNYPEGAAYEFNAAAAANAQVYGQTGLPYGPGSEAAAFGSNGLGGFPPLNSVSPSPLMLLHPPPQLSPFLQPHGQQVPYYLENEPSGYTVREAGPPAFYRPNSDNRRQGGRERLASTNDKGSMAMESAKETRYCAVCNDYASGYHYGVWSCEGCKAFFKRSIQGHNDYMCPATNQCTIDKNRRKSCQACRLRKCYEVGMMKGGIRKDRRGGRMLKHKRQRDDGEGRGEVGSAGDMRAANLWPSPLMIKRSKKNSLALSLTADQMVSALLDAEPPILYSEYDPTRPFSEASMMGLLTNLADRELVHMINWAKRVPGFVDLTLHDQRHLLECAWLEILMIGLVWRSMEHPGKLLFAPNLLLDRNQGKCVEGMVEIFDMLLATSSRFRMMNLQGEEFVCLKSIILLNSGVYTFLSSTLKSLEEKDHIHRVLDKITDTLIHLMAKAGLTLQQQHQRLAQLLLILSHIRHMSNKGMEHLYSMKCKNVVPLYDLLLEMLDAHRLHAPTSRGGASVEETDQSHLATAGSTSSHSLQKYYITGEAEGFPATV
Experimental: Beads were washed 3 times with 1 ml of binding buffer and the bound proteins were separated using 10% SDS-PAGE and visualized by autoradiography. Binding was quantitated by phosphorimaging using ImageQuant (Molecular Dynamics).

TAFII31 = molecular target: T4, TAFII31 (Homo sapiens, UniProt Q16594); assay: GRIP1 interaction with TAFII31; format: binding; conditions: data not shown
T4 sequence (Q16594 1-264): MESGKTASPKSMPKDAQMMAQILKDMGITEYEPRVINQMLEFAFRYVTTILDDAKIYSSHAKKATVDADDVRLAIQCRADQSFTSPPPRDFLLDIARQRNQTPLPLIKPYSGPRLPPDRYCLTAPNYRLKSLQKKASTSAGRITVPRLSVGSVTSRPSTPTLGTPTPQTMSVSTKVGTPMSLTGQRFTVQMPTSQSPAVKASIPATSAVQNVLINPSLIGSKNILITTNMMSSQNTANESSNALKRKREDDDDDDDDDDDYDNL

MDM2 = MDM2 (Homo sapiens, UniProt Q00987); assay: GRIP1 interaction with MDM2; format: binding; conditions: data not shown
Chain of MDM2 (Q00987 whole entry, species assumed): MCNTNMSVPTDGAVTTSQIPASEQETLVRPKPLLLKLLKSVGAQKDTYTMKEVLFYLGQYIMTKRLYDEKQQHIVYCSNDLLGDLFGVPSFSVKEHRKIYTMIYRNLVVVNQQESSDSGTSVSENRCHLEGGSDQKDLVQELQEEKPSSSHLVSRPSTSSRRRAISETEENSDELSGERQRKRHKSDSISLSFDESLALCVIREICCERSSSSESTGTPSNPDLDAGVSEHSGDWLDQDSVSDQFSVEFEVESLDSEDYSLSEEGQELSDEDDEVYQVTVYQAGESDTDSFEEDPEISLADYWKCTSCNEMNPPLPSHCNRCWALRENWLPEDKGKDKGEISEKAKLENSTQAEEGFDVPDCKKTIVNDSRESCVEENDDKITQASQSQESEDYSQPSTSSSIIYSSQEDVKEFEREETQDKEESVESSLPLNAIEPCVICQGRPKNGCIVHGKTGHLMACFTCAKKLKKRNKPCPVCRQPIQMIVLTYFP

## LLRYLL (listed as Homo sapiens) [minimal motif of NR-box 3]
hTRβ LBD [1]
  competition with TR LBD interaction with GRIP1 (563-767): does not compete

## NR-box 3: GST-GRIP1 (563-767) with hydrophobic residues of NR-box 2 replaced with alanine; NR-box 3 functional (ENALLRYLLDKDD)
GR
  binding of GR to GRIP1 fragment: binds most strongly
hTRβ LBD [2]; hydrophobic residues of the NR-box replaced with alanine
  loss of TR binding: about 50%

## 686-KHKILHRLLQDSS-698 (not fully specified; printed as 686-KHKILHRLLQDSS-698; listed as Homo sapiens) [GRIP1 NR-box 2 peptide]
hERα-LBD
  migration of DES-hERα-LBD complex in presence of peptide: retarded
  mobility of OHT-hERα-LBD complex on peptide addition: no effect

## TSLKEKHKLLRYLLQDSS
hTRβ LBD [1]
  competition with TR LBD interaction with GRIP1 (563-767): binds like a NR-box 2 peptide

## ILHRLL (MUTAGEN (15)..(15) Ile --> Ala; listed as Homo sapiens) [peptide consisting of the NR-box 2]
hTRβ LBD [1]
  competition with TR LBD interaction with GRIP1 (563-767): does not sufficiently compete

## KENALLRYLLDKDDTKD
hTRβ LBD [1]
  competition with TR LBD interaction with GRIP1 (563-767): increased affinity

## PKKKENALLRYLLDKDDTKD
hTRβ LBD [1]
  competition with TR LBD interaction with GRIP1 (563-767): increased affinity

## TSLKEKHKILHRLLQDS
hTRβ LBD [1]
  competition with TR LBD interaction with GRIP1 (563-767): increased affinity

B1: GRIP1: mouse p160 coactivator protein (protein)
chain: QNSPVNMNPPPLSKMGSLDSKDCFGLYGEPSEGTTGQAEASCHPEEQKGPNDSSMPQAASGDRAEGHSRLHDSKGQTKLLQLLTTKSDQMEPSPLPSSLSDTNKDSTGSLPGPGSTHGTSLKEKHKILHRLLQDSSSPVDLAKLTAEATGKELSQESSSTAPGSEVTVKQEPASPKKKENALLRYLLDKDDTKDIGLPEITPKLE
hERα V376R mutant
  residual GRIP1 binding: 10%
TAFII31
  interaction with TAFII31: no interaction was detected
MDM2
  interaction with MDM2: no interaction was detected

B2: GRIP1 (563-767): fragment of GRIP1 containing all three NR-boxes, used as GST-fusion (protein)
chain: QNSPVNMNPPPLSKMGSLDSKDCFGLYGEPSEGTTGQAEASCHPEEQKGPNDSSMPQAASGDRAEGHSRLHDSKGQTKLLQLLTTKSDQMEPSPLPSSLSDTNKDSTGSLPGPGSTHGTSLKEKHKILHRLLQDSSSPVDLAKLTAEATGKELSQESSSTAPGSEVTVKQEPASPKKKENALLRYLLDKDDTKDIGLPEITPKLEHHHHHH
modifications: left off: a dimerising Fc or GST
notes: fragment of GRIP1 containing all three NR-boxes, used as GST-fusion
GR
  affinity of GR for GRIP1 (563-767) relative to a comparable amount of TR: about one-fifth
  binding of GR to GRIP1 fragment: found to bind
hTRβ LBD [2]; NR-box hydrophobic residues replaced with alanine where mutant
  binding of TR to GST-GRIP1 (563-767) fragment: strongly binds TR

B3: GRIP1 (563-1121): GRIP1 (563-767) extended to residue 1121, GST fragment (protein)
chain: QNSPVNMNPPPLSKMGSLDSKDCFGLYGEPSEGTTGQAEASCHPEEQKGPNDSSMPQAASGDRAEGHSRLHDSKGQTKLLQLLTTKSDQMEPSPLPSSLSDTNKDSTGSLPGPGSTHGTSLKEKHKILHRLLQDSSSPVDLAKLTAEATGKELSQESSSTAPGSEVTVKQEPASPKKKENALLRYLLDKDDTKDIGLPEITPKLERLDSKTDPASNTKLIAMKTVKEEVSFEPSDQPGSELDNLEEILDDLQNSQLPQLFPDTRPGAPTGSVDKQAIINDLMQLTADSSPVPPAGAQKAALRMSQSTFNNPRPGQLGRLLPNQNLPLDITLQSPTGAGPFPPIRNSSPYSVIPQPGMMGNQGMLGSQGNLGNNSTGMIGSSTSRPSMPSGEWAPQSPAVRVTCAATTGAMNRPVQGGMIRNPTASIPMRANSQPGQRQMLQSQVMNIGPSELEMNMGGPQYNQQQAPPNQTAPWPESILPIDQASFASQNRQPFGSSPDDLLCPHPAAESPSDEGALLDQLYLALRNFDGLEEIDRALGIPELVSQSQAVDAEQFSSQE
modifications: left off: a dimerising Fc or GST
notes: GRIP1 (563-767) extended to residue 1121, GST fragment
GR
  increase of binding to GR on extension of GRIP1 (563-767) to residue 1121: about 3 fold
GR; GR deletion mutant lacking N-terminal AF-1 versus full length GR, no ligand
  increase of binding of GR to GRIP1 (563-1121) in the absence of ligand: about 10 fold
